We go through two molecules from PMC12713037, “FBXO44 Regulates FOXP1 Degradation Through AURKA‐Dependent Phosphorylation to Promote Colorectal Cancer Progression” (Advanced Science, 2025).

The target of test [1] is FBXO44 (F-box only protein 44) (UniProt Q9H4M3). Nature of the test: co-IP with anti-Flag, Western blot. Particulars: reference: Myc-FOXP1 wild type with His-AURKA; sites S440. (Immunoblotting shows a protein as a band on a membrane.)
A further test concerns the target T1, Purified Myc-FOXP1 (UniProt Q9H334 1-677).
T1 construct: Forkhead box protein P1 (FOXP1), Myc-tagged, purified for the GST pull-down; source: purified
T1 sequence (looked up): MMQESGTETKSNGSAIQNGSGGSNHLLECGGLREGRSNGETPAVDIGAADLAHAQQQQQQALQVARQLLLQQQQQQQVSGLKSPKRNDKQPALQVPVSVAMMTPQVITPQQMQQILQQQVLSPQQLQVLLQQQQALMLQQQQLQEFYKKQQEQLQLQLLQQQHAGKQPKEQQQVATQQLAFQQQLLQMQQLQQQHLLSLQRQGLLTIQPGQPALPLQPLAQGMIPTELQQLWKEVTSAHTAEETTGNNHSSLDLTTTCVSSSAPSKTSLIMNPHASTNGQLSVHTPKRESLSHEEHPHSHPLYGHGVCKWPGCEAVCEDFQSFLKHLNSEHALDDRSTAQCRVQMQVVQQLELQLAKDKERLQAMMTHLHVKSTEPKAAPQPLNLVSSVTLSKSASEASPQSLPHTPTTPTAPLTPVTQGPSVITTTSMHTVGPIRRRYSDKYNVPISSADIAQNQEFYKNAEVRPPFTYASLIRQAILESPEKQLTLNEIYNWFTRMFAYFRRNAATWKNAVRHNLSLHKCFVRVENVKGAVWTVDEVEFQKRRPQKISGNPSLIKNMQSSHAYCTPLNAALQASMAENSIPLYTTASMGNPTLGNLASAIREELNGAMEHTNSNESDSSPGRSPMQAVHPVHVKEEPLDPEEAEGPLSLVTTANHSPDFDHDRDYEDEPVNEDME
As to the kind of experiment: pull-down; GST-FBXO44 coupled to glutathione-Sepharose beads incubated with purified Myc-FOXP1; retained proteins analysed by immunoblot. Particulars: both partners purified.

Consider “FOXP1 (Forkhead box protein P1) (from UniProt Q9H334) Myc-FOXP1 S440A with His-AURKA”, for which, in test [1], the “binding against the reference” value is “weaker”.

B1: Recombinant GST-FBXO44 (natural protein, UniProt Q9H4M3 1-255, looked up)
chain: MAVGNINELPENILLELFTHVPARQLLLNCRLVCSLWRDLIDLVTLWKRKCLREGFITEDWDQPVADWKIFYFLRSLHRNLLHNPCAEEGFEFWSLDVNGGDEWKVEDLSRDQRKEFPNDQVKKYFVTSYYTCLKSQVVDLKAEGYWEELMDTTRPDIEVKDWFAARPDCGSKYQLCVQLLSSAHAPLGTFQPDPATIQQKSDAKWREVSHTFSNYPPGVRYIWFQHGGVDTHYWAGWYGPRVTNSSITIGPPLP
notes: F-box only protein 44 (FBXO44) fused to GST; source: purified from bacteria
Consider B1, for which the binding result in the test with Purified Myc-FOXP1 is given as “binds”.
